Source: publication PMC2570331

What was measured:
Assay in all cases: split reporter (BiFC, NanoBiT); CFP 1-158 on the N-terminus of α12.2 (WT, Bdel1 or Bdel2), CFP 159-238 on the C-terminus of β3core; HEK-293 cells co-transfected with α2δ1 and an RFP (mCherry or DsRed-Monomer, pooled); median of the cyan/red ratio of single cells
[1] = target: Bdel1 α12.2 tagged with the CFP 1–158 fragment (rat)
[2] = target: WT α12.2 tagged with the CFP 1–158 fragment (rat)
[3] = target: Bdel2 α12.2 tagged with the CFP 1–158 fragment (rat)

Chain of WT α12.2 tagged with the CFP 1–158 fragment (rat) (Q02294 whole entry, the tested form may be a part): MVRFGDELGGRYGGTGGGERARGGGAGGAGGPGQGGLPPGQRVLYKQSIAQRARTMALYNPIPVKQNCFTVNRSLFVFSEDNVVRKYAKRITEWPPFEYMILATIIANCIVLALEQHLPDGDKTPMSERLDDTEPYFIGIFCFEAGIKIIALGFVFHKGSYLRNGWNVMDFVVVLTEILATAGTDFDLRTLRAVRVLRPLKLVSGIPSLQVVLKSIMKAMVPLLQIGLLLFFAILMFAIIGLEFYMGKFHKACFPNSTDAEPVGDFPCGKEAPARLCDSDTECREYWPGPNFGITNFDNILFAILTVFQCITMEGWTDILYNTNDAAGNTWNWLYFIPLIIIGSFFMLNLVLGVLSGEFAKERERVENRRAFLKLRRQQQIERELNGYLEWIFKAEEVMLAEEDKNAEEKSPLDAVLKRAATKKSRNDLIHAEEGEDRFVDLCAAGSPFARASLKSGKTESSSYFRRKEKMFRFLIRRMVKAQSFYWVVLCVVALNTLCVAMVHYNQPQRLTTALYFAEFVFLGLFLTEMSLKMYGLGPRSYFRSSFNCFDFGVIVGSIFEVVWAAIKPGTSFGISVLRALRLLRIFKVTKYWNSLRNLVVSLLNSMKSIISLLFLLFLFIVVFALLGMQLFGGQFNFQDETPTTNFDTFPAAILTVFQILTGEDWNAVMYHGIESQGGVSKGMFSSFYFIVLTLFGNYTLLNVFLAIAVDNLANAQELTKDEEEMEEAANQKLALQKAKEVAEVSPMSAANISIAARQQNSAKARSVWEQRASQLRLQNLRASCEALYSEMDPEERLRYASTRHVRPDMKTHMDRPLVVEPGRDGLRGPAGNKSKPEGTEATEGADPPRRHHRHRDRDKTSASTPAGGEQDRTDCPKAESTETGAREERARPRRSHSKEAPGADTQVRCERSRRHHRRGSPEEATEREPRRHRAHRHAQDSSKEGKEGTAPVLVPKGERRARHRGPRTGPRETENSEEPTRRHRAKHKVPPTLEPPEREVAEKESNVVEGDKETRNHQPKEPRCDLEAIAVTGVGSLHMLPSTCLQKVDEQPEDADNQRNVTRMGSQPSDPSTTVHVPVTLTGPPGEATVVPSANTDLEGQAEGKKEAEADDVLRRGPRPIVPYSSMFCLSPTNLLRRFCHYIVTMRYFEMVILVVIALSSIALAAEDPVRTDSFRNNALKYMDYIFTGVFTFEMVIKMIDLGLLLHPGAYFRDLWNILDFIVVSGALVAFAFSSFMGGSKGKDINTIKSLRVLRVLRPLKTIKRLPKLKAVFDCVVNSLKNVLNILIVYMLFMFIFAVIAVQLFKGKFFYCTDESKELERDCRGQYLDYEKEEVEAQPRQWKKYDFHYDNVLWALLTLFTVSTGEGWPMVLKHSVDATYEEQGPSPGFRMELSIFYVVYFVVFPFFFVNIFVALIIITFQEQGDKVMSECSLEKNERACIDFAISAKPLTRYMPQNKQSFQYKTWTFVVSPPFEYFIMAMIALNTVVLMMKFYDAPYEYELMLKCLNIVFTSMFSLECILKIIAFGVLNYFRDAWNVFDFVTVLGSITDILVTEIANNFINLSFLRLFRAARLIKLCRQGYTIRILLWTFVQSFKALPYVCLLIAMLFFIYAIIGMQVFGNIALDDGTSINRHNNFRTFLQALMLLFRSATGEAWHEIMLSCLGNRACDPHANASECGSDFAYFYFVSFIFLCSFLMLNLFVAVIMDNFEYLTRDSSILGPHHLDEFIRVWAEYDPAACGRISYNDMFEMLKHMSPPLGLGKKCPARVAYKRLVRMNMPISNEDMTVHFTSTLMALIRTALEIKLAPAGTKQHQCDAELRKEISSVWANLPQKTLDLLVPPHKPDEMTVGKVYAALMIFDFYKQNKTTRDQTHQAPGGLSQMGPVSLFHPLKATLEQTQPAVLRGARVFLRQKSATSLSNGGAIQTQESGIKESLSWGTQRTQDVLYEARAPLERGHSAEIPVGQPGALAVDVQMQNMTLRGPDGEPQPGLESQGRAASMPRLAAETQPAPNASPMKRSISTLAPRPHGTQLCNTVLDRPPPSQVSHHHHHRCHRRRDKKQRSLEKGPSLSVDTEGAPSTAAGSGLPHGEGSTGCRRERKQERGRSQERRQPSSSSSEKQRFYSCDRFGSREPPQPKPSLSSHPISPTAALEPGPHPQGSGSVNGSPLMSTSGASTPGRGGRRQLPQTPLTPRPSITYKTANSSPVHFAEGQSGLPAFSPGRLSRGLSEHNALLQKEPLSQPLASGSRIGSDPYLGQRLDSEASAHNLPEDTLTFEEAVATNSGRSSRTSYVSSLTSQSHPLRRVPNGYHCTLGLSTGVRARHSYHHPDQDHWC

median ratio of cyan (BiFC) to red fluorescence [1]: 0.77
median ratio of cyan (BiFC) to red fluorescence [2]: 0.23
median ratio of cyan (BiFC) to red fluorescence [3]: 0.32
Substance: β3-core tagged with the CFP 159–238 fragment (from UniProt P54287 16-366) (domain or fragment)
